Laboratory results reported in patent US20230256092A1, “COMBINED USE OF ANTI-CCR8 ANTIBODY AND CHEMOTHERAPEUTIC AGENT” (Shionogi & Co., Ltd., priority 2020, published 2023).
Positions count from the first letter of the chain named. Names and notes keep the numbering of the source.

B1: h10A11 (IGKV4-1/IGHV3-73 R50K): humanized 10A11 heavy chain CDR point mutant (antibody, V domains shown)
VL: DIVMTQSPDSLAVSLGERATINCRSSKSLLHSNGNTYLYWYQQKPGQPPKLLIYRMSNLASGVPDRFSGSGSGTDFTLTISSLQAEDVAVYYCMQHLEYPLTFGQGTKLEIKRT
VH: EVQLVESGGGLVQPGGSLKLSCAASGFAFNTYALYWVRQASGKGLEWVGKIRSKSNNYATYYADSVKDRFTISRDDSKNTAYLQMNSLKTEDTAVYYCTRARFYYSDYGYAMDYWGQGTLVTVSS
B2: h10A11 (IGKV4-1/IGHV3-73 R52K): humanized 10A11 heavy chain CDR point mutant (antibody, V domains shown)
VL: B1 VL
VH: B1 VH with K50R, R52K
B3: h10A11 (IGKV4-1/IGHV3-73 T57S): humanized 10A11 heavy chain CDR point mutant (antibody, V domains shown)
VL: B1 VL
VH: B1 VH with K50R, T60S
B4: h10A11 (IGKV4-1/IGHV3-73 D61E): humanized 10A11 heavy chain CDR point mutant (antibody, V domains shown)
VL: B1 VL
VH: B1 VH with K50R, D64E
B5: h10A11 (IGKV4-1/IGHV3-73 S52aT): humanized 10A11 heavy chain CDR point mutant (antibody, V domains shown)
VL: B1 VL
VH: B1 VH with K50R, S53T
B6: h10A11 (IGKV4-1/IGHV3-73 K52bR): humanized 10A11 heavy chain CDR point mutant (antibody, V domains shown)
VL: B1 VL
VH: B1 VH with K50R, K54R
B7: h10A11 (IGKV4-1/IGHV3-73 D65E): humanized 10A11 heavy chain CDR point mutant (antibody, V domains shown)
VL: B1 VL
VH: B1 VH with K50R, D68E
B8: h10A11 (IGKV4-1/IGHV3-73 D100aE): humanized 10A11 heavy chain CDR point mutant (antibody, V domains shown)
VL: B1 VL
VH: B1 VH with K50R, D107E
B9: h10A11 (IGKV4-1/IGHV3-73 Y100bF): humanized 10A11 heavy chain CDR point mutant (antibody, V domains shown)
VL: B1 VL
VH: B1 VH with K50R, Y108F
B10: h10A11 (IGKV4-1/IGHV3-73 R96K): humanized 10A11 heavy chain CDR point mutant (antibody, V domains shown)
VL: B1 VL
VH: B1 VH with K50R, R102K
B11: h10A11 (IGKV4-1/IGHV3-73 K64R): humanized 10A11 heavy chain CDR point mutant (antibody, V domains shown)
VL: B1 VL
VH: B1 VH with K50R, K67R
B12: h10A11 (IGKV4-1/IGHV3-73 Y59F): humanized 10A11 heavy chain CDR point mutant (antibody, V domains shown)
VL: B1 VL
VH: B1 VH with K50R, Y62F
B13: h10A11 (IGKV4-1/IGHV3-73 S100T): humanized 10A11 heavy chain CDR point mutant (antibody, V domains shown)
VL: B1 VL
VH: B1 VH with K50R, S106T
B14: h10A11 (IGKV4-1/IGHV3-73 A60V): humanized 10A11 heavy chain CDR point mutant (antibody, V domains shown)
VL: B1 VL
VH: B1 VH with K50R, A63V
B15: h10A11 (IGKV4-1/IGHV3-73 Y100dF): humanized 10A11 heavy chain CDR point mutant (antibody, V domains shown)
VL: B1 VL
VH: B1 VH with K50R, Y110F
B16: h10A11 (IGKV4-1/IGHV3-73 S52cT): humanized 10A11 heavy chain CDR point mutant (antibody, V domains shown)
VL: B1 VL
VH: B1 VH with K50R, S55T
B17: h10A11 (IGKV4-1/IGHV3-73 Y98F): humanized 10A11 heavy chain CDR point mutant (antibody, V domains shown)
VL: B1 VL
VH: B1 VH with K50R, Y104F
B18: h10A11 (IGKV4-1/IGHV3-73 I51L): humanized 10A11 heavy chain CDR point mutant (antibody, V domains shown)
VL: B1 VL
VH: B1 VH with K50R, I51L
B19: h10A11 (IGKV4-1/IGHV3-73 Y58F): humanized 10A11 heavy chain CDR point mutant (antibody, V domains shown)
VL: B1 VL
VH: B1 VH with K50R, Y61F
B20: h10A11 (IGKV4-1/IGHV3-73 A56V): humanized 10A11 heavy chain CDR point mutant (antibody, V domains shown)
VL: B1 VL
VH: B1 VH with K50R, A59V
B21: h10A11 (IGKV4-1/IGHV3-73 S62T): humanized 10A11 heavy chain CDR point mutant (antibody, V domains shown)
VL: B1 VL
VH: B1 VH with K50R, S65T
B22: h10A11 (IGKV4-1/IGHV3-73 G100cA): humanized 10A11 heavy chain CDR point mutant (antibody, V domains shown)
VL: B1 VL
VH: B1 VH with K50R, G109A
B23: h10A11 (IGKV4-1/IGHV3-73 Y55F): humanized 10A11 heavy chain CDR point mutant (antibody, V domains shown)
VL: B1 VL
VH: B1 VH with K50R, Y58F
B24: h10A11 (IGKV4-1/IGHV3-73 F97L): humanized 10A11 heavy chain CDR point mutant (antibody, V domains shown)
VL: B1 VL
VH: B1 VH with K50R, F103L
B25: h10A11 (IGKV4-1/IGHV3-73 N53Q): humanized 10A11 heavy chain CDR point mutant (antibody, V domains shown)
VL: B1 VL
VH: B1 VH with K50R, N56Q
B26: h10A11 (IGKV4-1/IGHV3-73 A100eV): humanized 10A11 heavy chain CDR point mutant (antibody, V domains shown)
VL: B1 VL
VH: B1 VH with K50R, A111V
B27: h10A11 (IGKV4-1/IGHV3-73 Y99F): humanized 10A11 heavy chain CDR point mutant (antibody, V domains shown)
VL: B1 VL
VH: B1 VH with K50R, Y105F
B28: h10A11 (IGKV4-1/IGHV3-73 V63L): humanized 10A11 heavy chain CDR point mutant (antibody, V domains shown)
VL: B1 VL
VH: B1 VH with K50R, V66L
B29: h10A11 (IGKV4-1/IGHV3-73 M100fL): humanized 10A11 heavy chain CDR point mutant (antibody, V domains shown)
VL: B1 VL
VH: B1 VH with K50R, M112L

Biological target: T1, human CCR8 (Homo sapiens, UniProt P51685)
T1 construct: expressed in transfected cells; host or cells: 293 cells
Assay: Neutralizing activity: inhibition of Ca2+ influx by 200 nM hCCL1 in human CCR8 expressing 293 cells (FLIPR), Test Example 6
Type: cell-based
Conditions: Table 9; WT IC50/mutant IC50; humanized 10A11 heavy chain CDR mutants, IGKV4-1/IGHV3-73
Method: The antibody dilution diluted with a medium was added to human CCR8 expressing 293 cells in which a Ca^2+ indicator was incorporated beforehand, and Ca^2+ influx by addition of 200 nM hCCL1 (manufactured by BioLegend) was measured with FLIPR. […] The evaluation was performed at least three times, and IC50 was expressed as average±SD.

| IC50 ratio | Molecule |
| --- | --- |
| 0.12 | B1 |
| 0.49 | B3 |
| 0.25 | B4 |
| 0.22 | B5 |
| 0.47 | B6 |
| 1.30 | B7 |
| 0.30 | B8 |
| 0.75 | B9 |
| 0.54 | B11 |
| 0.03 | B12 |
| 0.64 | B13 |
| 0.67 | B14 |
| 0.55 | B15 |
| 0.53 | B16 |
| 0.07 | B17 |
| 0.22 | B18 |
| 0.50 | B19 |
| 0.55 | B20 |
| 1.60 | B21 |
| 0.07 | B22 |
| 0.47 | B23 |
| 0.03 | B25 |
| 0.49 | B26 |
| 0.80 | B27 |
| 0.56 | B28 |
| 0.72 | B29 |

| Molecule | IC50 ratio |
| --- | --- |
| B2 | n.d. (The n.d. (=not detectable) indicates that the IC50 value of the mutant is 10 nM or more) |
| B10 | n.d. (The n.d. (=not detectable) indicates that the IC50 value of the mutant is 10 nM or more) |
| B24 | n.d. (The n.d. (=not detectable) indicates that the IC50 value of the mutant is 10 nM or more) |
